Source: patent US20190048038A1, “METHOD FOR GENERATING CELL-PENETRATING STAPLED PEPTIDES THAT LACK NONSPECIFIC MEMBRANE-LYTIC PROPERTIES FOR THERAPEUTIC TARGETING” (Dana-Farber Cancer Institute, Inc., priority 2016, published 2019)
Positions of bridges follow the written chain, without caps; N, C: chain ends. Non-standard residues stand in square brackets, D forms with d. Residues, ends and D or L forms follow the SMILES beside them. No end group written: not given here. *: point of attachment. FITC = O=C1OC2(c3ccc(O)cc3Oc3cc(O)ccc32)c2ccc(NC(=S)*)cc21; R8 = C=CCCCCCC[C@@](C)(N)C(=O)O; Cba = N[C@@H](CC1CCC1)C(=O)O; S5 = C=CCCC[C@](C)(N)C(=O)O; βAla = NCCC(=O)O

Assays:
[1] = system: mouse embryonic fibroblasts (MEFs); experiment: ImageXpress microscopy cellular uptake of FITC-peptides (TIFI); format: cell-based; conditions: MEFs 2×10^4 cells/well, 500 nM FITC-peptide, 4 h, 0% FBS, per cell basis
Text: The cellular penetrance of a peptide of interest can be assessed by any method known in the art. For example, ImageXpress microscopy analysis may be employed as described in Example 1. The total internalized FITC intensity (TIFI) can be used as a way to determine cellular uptake of a hydrocarbon-stapled and/or stitched peptide by a cell (e.g., any cell described herein). Methods of determining TIFI are described in detail in Examples 2 and 3 of the instant specification. Briefly, a custom module (CM) was created to develop a rigorous quantitation platform for measuring cellular uptake of hydrocarbon-stapled and/or stitched peptides derivatized with a FITC fluorophore at the N-terminus. The CM was developed based on (1) defining the parameters of cellular uptake (e.g., excluding extracellular aggregates and auto-fluorescent debris), (2) defining a pixel boundary to avoid quantitation of extracellular, membrane-adherent peptides, (3) excluding out-of-focus fluorescence from the FITC signal outliers. Once the CM parameters are set, images can be acquired at 20× and 40× magnification for per cell basis fluorescence, and four distinct central locations of the cellular field are visualized. Next signal-to-noise ratios are maximized to ensure optimal sensitivity and specificity of internal FITC-peptide signal. […]

[2] = system: BCL-XL-reconstituted p185^+Arf^−/−Mcl-1^del B-ALL cells; experiment: LDH release assay (membrane lysis) in B-ALL cells; conditions: 10 μM peptide, 30 min, serum-free
Procedure: Data are normalized based on the response to treatment with 1% Triton X-100 (100% release) and media alone (0% LDH release). Error bars are mean±s.d. for experiments performed in technical duplicate and repeated twice.
B-ALL and Jurkat T cells were plated in 96-well format (2×10^4 cells per well) in serum-free RPMI. […] The plate was centrifuged at 1500 rpm for 5 min at 4° C., and 80 μL of cell culture media was transferred to a clear plate (Corning), incubated with 80 μL of LDH reagent (Roche) for 15 min while shaking, and absorbance measured at 490 nm on a microplate reader (SpectraMax M5 Microplate Reader, Molecular Devices).
In order to identify compounds whose cytotoxicity correlates with the capacity for cellular uptake and intracellular target engagement, it is important to rule out nonspecific cytotoxicity due to potential plasma membrane lysis.

[3] = molecular target: T1, BCL-XLΔC (Homo sapiens, UniProt Q07817); experiment: IC50 (nM); design: BCL-XL ΔC was expressed as a glutathione-S-transferase (GST) fusion protein; GST (N, cleaved yes); made in house; host or cells: Escherichia coli BL21 (DE3), pGEX2T vector
Text: Table printed on a drawing sheet, FIG. 4B
Head of the field: IC50 (nM)
First copying reader's note: The table is the legend of a binding plot (mP vs [BCL-XL ΔC], M); plot marker symbols before each sequence are left out, and some mutated residues are printed inside a box.

[4] = molecular target: T1, BCL-XLΔC; experiment: fluorescence polarization
Target sequence in this assay (Q07817 1-212, stated change not applied): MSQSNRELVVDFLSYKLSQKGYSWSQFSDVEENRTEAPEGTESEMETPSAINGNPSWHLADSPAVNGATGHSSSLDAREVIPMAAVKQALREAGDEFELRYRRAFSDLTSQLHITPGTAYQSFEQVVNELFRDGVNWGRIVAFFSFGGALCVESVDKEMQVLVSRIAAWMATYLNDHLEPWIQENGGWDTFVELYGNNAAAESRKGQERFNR

[5] = system: SAOS-2 cells; experiment: Epifluorescence (IXM) microscopy cellular penetrance of ATSP-7041; format: cell-based
Text: Error bars represent mean±s.d.
Images were acquired by IXM.

[6] = Percent α-helicity by circular dichroism; format: physicochemical; conditions: 222 nm
Procedure: FIG. 19 is a table showing the sequence composition and biophysical parameters of a BIM BH3 staple scanning library. Hydrophobicity was calculated using techniques generally known in the art^39, with “X” assigned the hydrophobicity value of Leu. Retention time in minutes reflects the peptide elution time from an HPLC C18 column (Agilent, 1200) run for 20 minutes using a 5-95% water: acetonitrile gradient (10 mM ammonium carbonate). Percent α-helicity of stapled peptides (50 μM, 10% acetonitrile in water) was derived from circular dichroism spectra using the mdeg value at 222 nm, as described^34. Net charge was calculated by summing the positive and negative charges of Arg and Asp/Glu, respectively. The isoelectric point (pI) calculation employed the EMBOSS values for pKa.
The alpha-helicity of a peptide of interest can be determined by any method known in the art. In some cases, circular dichroism or nuclear magnetic resonance spectroscopy (NMR) may be employed. Peptides are dissolved in an aqueous solution (e.g., 5 mM potassium phosphate solution at pH 7, or distilled H2O, to concentrations of 25-50 μM). […] The α-helical content of each peptide is calculated by dividing the mean residue ellipticity by the reported value for a model helical decapeptide (Yang et al., Methods Enzymol. 130:208 (1986)). […]

[7] = system: cells; conditions: 20 μM peptide
Text: Data are normalized based on the response to treatment with 1% Triton X-100 (100% release) and media alone (0% LDH release). Error bars are mean±s.d.

**Q.** For `CC[C@H](C)[C@H](NC(=O)CCNC(=S)Nc1ccc2c(c1)C(=O)OC21c2ccc(O)cc2Oc2cc(O)ccc21)C(=O)N[C@@H](Cc1c[nH]c2ccccc12)C(=O)N[C@H](C(=O)N[C@@H](C)C(=O)N[C@@H](CCC(N)=O)C(=O)N[C@@H](CCC(=O)O)C(=O)N[C@@H](CC(C)C)C(=O)N[C@@H](CCCNC(=N)N)C(=O)N[C@@]1(C)CCCC=CCCC[C@@](C)(C(=O)N[C@@H](Cc2ccccc2)C(=O)N[C@@H](CC(N)=O)C(=O)N[C@@H](CCC(=O)O)C(=O)N[C@@H](Cc2ccc(O)cc2)C(=O)N[C@@H](Cc2ccc(O)cc2)C(=O)N[C@@H](C)C(=O)N[C@@H](CCCNC(=N)N)C(=O)N[C@@H](CCCNC(=N)N)C(N)=O)NC(=O)[C@H](CC(=O)O)NC(=O)CNC(=O)[C@H]([C@@H](C)CC)NC1=O)[C@@H](C)CC` [A161E, IWIAQELRXIGDXFNEYYARR], which “total internalized FITC intensity (TIFI), cellular uptake” value [1] is on record?
**A.** retention of high level TIFI

**Q.** Which “LDH release, membrane lytic activity” value [2] does the source give for `CC[C@H](C)[C@H](NC(=O)CCNC(=S)Nc1ccc2c(c1)C(=O)OC21c2ccc(O)cc2Oc2cc(O)ccc21)C(=O)N[C@@H](Cc1c[nH]c2ccccc12)C(=O)N[C@H](C(=O)N[C@@H](C)C(=O)N[C@@H](CCC(N)=O)C(=O)N[C@@H](CCC(=O)O)C(=O)N[C@@H](CC(C)C)C(=O)N[C@@H](CCCNC(=N)N)C(=O)N[C@@]1(C)CCCC=CCCC[C@@](C)(C(=O)N[C@@H](Cc2ccccc2)C(=O)N[C@@H](CC(N)=O)C(=O)N[C@@H](C)C(=O)N[C@@H](Cc2ccc(O)cc2)C(=O)N[C@@H](Cc2ccc(O)cc2)C(=O)N[C@H](C(=O)N[C@@H](CCCNC(=N)N)C(=O)N[C@@H](CCCNC(=N)N)C(N)=O)[C@@H](C)O)NC(=O)[C@H](CC(=O)O)NC(=O)CNC(=O)[C@H]([C@@H](C)CC)NC1=O)[C@@H](C)CC` [A164T, IWIAQELRXIGDXFNAYYTRR] here?
**A.** promote lysis

**Q.** With `CC[C@H](C)[C@H](NC(=O)CCNC(=S)Nc1ccc2c(c1)C(=O)OC21c2ccc(O)cc2Oc2cc(O)ccc21)C(=O)N[C@@H](Cc1c[nH]c2ccccc12)C(=O)N[C@H](C(=O)N[C@@H](C)C(=O)N[C@@H](CCC(N)=O)C(=O)N[C@@H](CCC(=O)O)C(=O)N[C@@H](CC(C)C)C(=O)N[C@@H](CCCNC(=N)N)C(=O)N[C@@]1(C)CCCC=CCCC[C@@](C)(C(=O)N[C@@H](Cc2ccccc2)C(=O)N[C@@H](CC(N)=O)C(=O)N[C@@H](C)C(=O)N[C@@H](Cc2ccc(O)cc2)C(=O)N[C@@H](Cc2ccc(O)cc2)C(=O)N[C@@H](C)C(=O)N[C@@H](CCCNC(=N)N)C(=O)N[C@@H](CCCNC(=N)N)C(N)=O)NC(=O)[C@H](CC(C)C)NC(=O)CNC(=O)[C@H]([C@@H](C)CC)NC1=O)[C@@H](C)CC` [IWIAQELRXIGLXFNAYYARR] ({FITC-βAla}-IWIAQELR[S5]IGL[S5]FNAYYARR-NH2; staple 9-13) as the compound, how does the IC50 [3] read?
**A.** > 1000 nM

**Q.** Which “LDH release, membrane lytic activity” value [2] does the source give for `CC[C@H](C)[C@H](NC(=O)CCNC(=S)Nc1ccc2c(c1)C(=O)OC21c2ccc(O)cc2Oc2cc(O)ccc21)C(=O)N[C@@H](CCCNC(=N)N)C(=O)N[C@H](C(=O)N[C@@H](C)C(=O)N[C@@H](CCC(N)=O)C(=O)N[C@@H](CCC(=O)O)C(=O)N[C@@H](CC(C)C)C(=O)N[C@@H](CCCNC(=N)N)C(=O)N[C@@]1(C)CCCC=CCCC[C@@](C)(C(=O)N[C@@H](Cc2ccccc2)C(=O)N[C@@H](CC(N)=O)C(=O)N[C@@H](C)C(=O)N[C@@H](Cc2ccc(O)cc2)C(=O)N[C@@H](Cc2ccc(O)cc2)C(=O)N[C@@H](C)C(=O)N[C@@H](CCCNC(=N)N)C(=O)N[C@@H](CCCNC(=N)N)C(N)=O)NC(=O)[C@H](CC(=O)O)NC(=O)CNC(=O)[C@H]([C@@H](C)CC)NC1=O)[C@@H](C)CC` [W147R, IRIAQELRXIGDXFNAYYARR] here?
**A.** promote lysis

**Q.** Which IC50 [4] does the source give for BIM SAHBA1 here?
**A.** 13.8 nM

**Q.** With IWIALELRXIGDXFNAYYARR as the compound, how does the IC50 [4] read?
**A.** > 1000 nM

**Q.** Which IC50 [4] does the source give for IWIAQELRXIGDXFNAIYARR here?
**A.** 59.4 nM

**Q.** For IWIAQELRXIGDXFNAYYIRR, which IC50 [4] is on record?
**A.** 45.7 nM

**Q.** For IWIAQLLRXIGDXFNAYYARR, which IC50 [4] is on record?
**A.** > 1000 nM

**Q.** For “LTFZEYWANCbXSAA (LTF[R8]EYWAN[Cba][S5]SAA; staple 4-11) [ATSP-7041]”, which “cellular penetrance (TIFI value)” value [5] is on record?
**A.** effective cellular penetrance

**Q.** What about the α-helicity [6] of the same compound?
**A.** 70%

**Q.** And the “nonspecific membrane lytic properties (LDH release)” value [7]?
**A.** lacks nonspecific membrane lytic properties
